Measured values from article PMC4937444.

Tested on: MukB (Escherichia coli)
Assay: pull-down (MU topological loading assay)
Details: no ATP, 750 mM KCl wash, MU assay: low salt 25 mM KCl loading (37 °C), His-tag affinity beads, typically 7.3 pmol MukB and 100 ng DNA, SSB EMSA: HKD buffer (25 mM …)

For cccDNA (pUC19/pUC119), the binding signal (% DNA retrieved) was 4.6.

For ldsDNA, the binding signal (% DNA retrieved) was 0.6.

For pUC119 cssDNA, the binding signal (% DNA retrieved) was 10.6.
